Results on 2 molecules are retold here after patent publication EP4813403A1, “USE OF GLP-1R/GIPR DOUBLE-TARGET AGONIST IN PREPARING ANIMAL DRUG” (Hangzhou Zhongmeihuadong Pharmaceutical Co., Ltd., priority 2023, dated 2025).

Test [1] concerns the target T1, human GIP receptor (human) (UniProt P48546).
T1 sequence (looked up): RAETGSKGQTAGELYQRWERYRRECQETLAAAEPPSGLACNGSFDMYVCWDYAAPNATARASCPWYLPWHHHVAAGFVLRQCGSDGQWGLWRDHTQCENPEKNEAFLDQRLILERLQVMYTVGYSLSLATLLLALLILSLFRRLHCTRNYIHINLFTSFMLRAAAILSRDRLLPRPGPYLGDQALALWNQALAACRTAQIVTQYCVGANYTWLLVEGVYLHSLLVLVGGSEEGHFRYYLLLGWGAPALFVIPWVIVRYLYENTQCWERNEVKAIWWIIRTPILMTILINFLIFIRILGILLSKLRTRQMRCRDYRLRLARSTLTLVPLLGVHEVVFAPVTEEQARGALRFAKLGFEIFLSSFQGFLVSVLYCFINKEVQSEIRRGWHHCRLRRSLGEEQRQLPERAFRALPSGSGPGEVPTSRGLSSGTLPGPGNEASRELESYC
Description: cell-based or functional assay.

The target in test [2] is human GLP-1 receptor (human) (UniProt P43220). As to the kind of experiment: cell-based or functional assay.
human GLP-1 receptor (human), sequence (P43220 24-463): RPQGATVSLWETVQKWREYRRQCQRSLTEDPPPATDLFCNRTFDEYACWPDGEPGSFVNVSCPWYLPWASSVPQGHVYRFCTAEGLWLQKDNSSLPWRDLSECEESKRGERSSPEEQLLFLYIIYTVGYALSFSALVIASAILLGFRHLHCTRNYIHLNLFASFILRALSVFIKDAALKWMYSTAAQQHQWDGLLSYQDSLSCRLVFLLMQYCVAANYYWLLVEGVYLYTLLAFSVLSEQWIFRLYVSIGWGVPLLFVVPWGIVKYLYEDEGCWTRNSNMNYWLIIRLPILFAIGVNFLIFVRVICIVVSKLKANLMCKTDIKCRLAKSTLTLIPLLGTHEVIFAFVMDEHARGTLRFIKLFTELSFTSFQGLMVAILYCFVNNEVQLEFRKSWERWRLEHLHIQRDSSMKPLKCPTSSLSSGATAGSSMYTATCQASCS
The target in test [3] is T1, human GIP receptor (human). Description: radioligand competition ([125I]GIP displaced), membranes of cells over-expressing human GIPR; Ki by Cheng-Prusoff.
Test [4] concerns the target human GLP-1 receptor (human) (UniProt P43220). As to the kind of experiment: radioligand competition ([125I]GLP-1 displaced), membranes of cells over-expressing human GLP-1R; Ki by Cheng-Prusoff. On the technique in general: In a radioligand displacement assay an active substance lowers the binding of a labelled ligand.

B1: P001 (peptide)
peptide: YXEGTXTSDYXIXLDKQAQAEFVKWLLKGGPSSGAPPPSK
modifications: X1 is Aib; X2 is αMePhe; X3 is Aib; X4 is Aib; C-terminal primary amide
As to B1, in test [1], the EC50 value (ratio: EC50 of endogenous ligand / EC50 of test compound), LANCE Ultra cAMP assay, HEK293/GIPR cells was 7.13. In addition, the EC50 value (ratio: EC50 of endogenous ligand / EC50 of test compound), cAMP reporter gene (luciferase) assay, HEK293/CRE/GLP-1R cells in test [2] was determined as 52.1. The Ki ratio (Ki of endogenous ligand / Ki of test compound) in test [3] was determined as 8.82; in test [4], 19.5.

B2: P007 (peptide)
peptide: B1 peptide
modifications: Aib at 2; αMePhe at 6; Aib at 11; Aib at 13; K at position 24 ε-amino conjugated with ([2-(2-amino-ethoxy)-ethoxy]-acetyl)2-(γ-Glu)1-CO-(CH2)16-CO2H; C-terminal primary amide
For B2, in test [2], the EC50 value (ratio: EC50 of endogenous ligand / EC50 of test compound), cAMP reporter gene (luciferase) assay, HEK293/CRE/GLP-1R cells was determined as 5.84. Moreover, the Ki ratio (Ki of endogenous ligand / Ki of test compound) in test [4] came to 0.47.
